According to patent US20230151091A1 (NEW YORK UNIVERSITY, published 2023):

Tests used:
cynomolgus monkey MuSK = cynomolgus monkey MuSK (cynomolgus monkey, UniProt A0A2K5USF6 24-487); test: Biacore, MuSK on chip (200RU), 66.7 nM mAb, dissociation pH 7.4
Outline: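 Sensor chip coated in parallel with cynomolgus monkey, rat and mouse MuSK. Antibody applied at a single concentration; association and dissociation kinetic parameters calculated from the sensorgrams.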

[1] = molecular target: T1, mouse MuSK, endogenous (C2C12 myotubes; neuromuscular synapses of mice) (mouse, UniProt Q61006 22-868); test: cell-based or functional assay
T1 sequence (looked up): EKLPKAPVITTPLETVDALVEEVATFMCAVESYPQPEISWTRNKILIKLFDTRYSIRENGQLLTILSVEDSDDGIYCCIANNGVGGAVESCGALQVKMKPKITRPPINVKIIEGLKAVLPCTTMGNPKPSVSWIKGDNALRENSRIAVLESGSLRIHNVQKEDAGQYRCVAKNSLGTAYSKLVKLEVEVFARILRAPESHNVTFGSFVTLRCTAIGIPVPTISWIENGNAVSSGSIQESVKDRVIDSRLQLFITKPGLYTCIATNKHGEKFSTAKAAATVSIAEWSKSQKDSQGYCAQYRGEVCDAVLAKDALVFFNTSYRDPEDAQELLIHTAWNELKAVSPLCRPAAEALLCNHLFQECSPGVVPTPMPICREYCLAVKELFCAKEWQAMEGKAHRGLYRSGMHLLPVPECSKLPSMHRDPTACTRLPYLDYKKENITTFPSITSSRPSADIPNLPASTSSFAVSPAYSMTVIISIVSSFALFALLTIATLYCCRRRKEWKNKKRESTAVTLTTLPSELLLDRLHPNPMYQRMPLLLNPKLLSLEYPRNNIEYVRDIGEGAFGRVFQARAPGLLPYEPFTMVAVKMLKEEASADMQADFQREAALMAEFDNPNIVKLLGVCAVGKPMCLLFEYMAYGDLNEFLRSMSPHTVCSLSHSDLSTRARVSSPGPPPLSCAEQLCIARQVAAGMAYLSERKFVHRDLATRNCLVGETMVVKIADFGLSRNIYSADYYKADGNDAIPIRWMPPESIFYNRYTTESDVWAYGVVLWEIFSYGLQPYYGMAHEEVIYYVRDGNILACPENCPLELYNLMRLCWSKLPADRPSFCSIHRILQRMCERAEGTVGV

human MuSK = molecular target: T2, human MuSK (human, UniProt O15146 24-495); test: Biacore, MuSK on chip (200RU), mAb dilution series
T2 construct: Recombinant protein coated on ELISA plates (R&D Systems cat. 10189-MK) or on the Biacore chip; also called human muscle-specific tyrosine protein kinase; full length human MuSK
T2 sequence: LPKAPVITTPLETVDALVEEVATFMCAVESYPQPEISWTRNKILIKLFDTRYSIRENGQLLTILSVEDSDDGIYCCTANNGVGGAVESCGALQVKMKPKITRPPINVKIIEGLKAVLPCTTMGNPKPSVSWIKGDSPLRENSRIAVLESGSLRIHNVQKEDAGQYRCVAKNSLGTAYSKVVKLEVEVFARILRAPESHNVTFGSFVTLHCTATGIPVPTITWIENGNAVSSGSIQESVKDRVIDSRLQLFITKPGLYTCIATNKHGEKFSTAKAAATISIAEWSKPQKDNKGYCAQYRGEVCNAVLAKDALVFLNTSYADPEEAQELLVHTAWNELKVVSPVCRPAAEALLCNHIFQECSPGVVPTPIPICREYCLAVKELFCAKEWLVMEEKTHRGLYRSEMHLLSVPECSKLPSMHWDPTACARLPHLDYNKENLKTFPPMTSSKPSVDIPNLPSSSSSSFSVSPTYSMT
Excerpt: (§1) For affinity determination, a CMS chip was coated with either human or mouse MuSK (200RU) and a dilution series of the antibodies (mAbs and Fabs) was applied in order to be able to calculate the affinity.

mouse MuSK = molecular target: T3, mouse MuSK (mouse, UniProt Q61006 22-494, limits assumed); test: Biacore, MuSK on chip (200RU), mAb dilution series
T3 construct: Coated on ELISA plates or on the Biacore chip; also called full length mouse MuSK; mouse MuSK (in house produced in HEK293 cells)
T3 sequence (looked up): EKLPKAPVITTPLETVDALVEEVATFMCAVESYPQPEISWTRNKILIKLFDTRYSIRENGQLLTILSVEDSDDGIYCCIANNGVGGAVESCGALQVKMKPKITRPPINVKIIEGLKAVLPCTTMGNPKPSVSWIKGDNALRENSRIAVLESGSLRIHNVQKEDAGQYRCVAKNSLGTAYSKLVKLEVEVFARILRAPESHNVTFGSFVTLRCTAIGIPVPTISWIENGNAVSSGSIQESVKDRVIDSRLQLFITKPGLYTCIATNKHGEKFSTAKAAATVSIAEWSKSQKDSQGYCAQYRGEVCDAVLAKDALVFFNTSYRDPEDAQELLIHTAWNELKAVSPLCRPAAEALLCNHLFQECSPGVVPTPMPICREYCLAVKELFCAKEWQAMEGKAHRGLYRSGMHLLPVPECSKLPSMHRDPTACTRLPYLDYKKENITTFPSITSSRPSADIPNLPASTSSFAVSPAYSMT
Excerpt: as §1

Chain of cynomolgus monkey MuSK (A0A2K5USF6 entry or part of it): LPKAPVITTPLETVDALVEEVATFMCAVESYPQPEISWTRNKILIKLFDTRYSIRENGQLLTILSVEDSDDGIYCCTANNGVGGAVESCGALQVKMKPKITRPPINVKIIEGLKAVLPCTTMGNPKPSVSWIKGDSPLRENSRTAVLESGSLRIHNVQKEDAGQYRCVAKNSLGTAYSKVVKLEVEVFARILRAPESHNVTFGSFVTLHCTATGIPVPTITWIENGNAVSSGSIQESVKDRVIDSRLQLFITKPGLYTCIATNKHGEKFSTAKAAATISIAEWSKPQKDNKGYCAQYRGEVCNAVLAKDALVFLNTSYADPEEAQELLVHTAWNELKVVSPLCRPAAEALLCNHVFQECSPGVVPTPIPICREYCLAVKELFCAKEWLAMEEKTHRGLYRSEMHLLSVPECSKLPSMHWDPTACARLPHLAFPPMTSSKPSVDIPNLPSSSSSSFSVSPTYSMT

R0 (cynomolgus monkey MuSK): 143 RU
koff (cynomolgus monkey MuSK): 0.00097 s⁻¹
kon (cynomolgus monkey MuSK): 790000 M⁻¹ s⁻¹
% Phosphorylation Induced in C2C12 Mouse Assay, Assay 1 [1]: 74 % versus agrin
% Phosphorylation Induced in C2C12 Mouse Assay, Assay 2 [1]: 94 % versus agrin
% Phosphorylation Induced in C2C12 Mouse Assay, Assay 3 [1]: 64 % versus agrin
% Phosphorylation Induced in C2C12 Mouse Assay, Average [1]: 77 % versus agrin
Kd (human MuSK): 0.145 nM
Kd (mouse MuSK): 0.134 nM
B1: 3B2 (antibody, V domains shown)
VH: ELQLVESGGGLVQPGGSLRLSCAASGFTFDDYGMSWVRQAPGKGLEWVSAIPWNGGSTYYKESVKGRFTISRDNAKKTLYLQMNSLKSEDTAVYYCAKRSGRIAFGALDAWGQGTLVTVSS
VL: QAVVTQEPSLSVSPGGTVTLTCGLSSGSVTSSNYPDWYQQTPGQAPRGLIYSTDSRHSGVPSRFSGSISGNKAALTITGAQSEDEADYYCGLYMYSGSKNYVFGGGTKLTVL
notes: human IgG1 with the LALA mutations (L234A, L235A); produced in HEK293 cells; also called 3B2 mAb; parental 3B2 Ab
